Results on 15 molecules are retold here after patent US20210275590A1 (LEGEND BIOTECH IRELAND, published 2021).

Where a chain is given by its changes, count along the chain named.

Sequences and labels used below:
B1: AS49226 sdAb (VHH)
VHH: EVQLAESGGGSVQAGGSLRLSCAASGVTFSSTSVAWFRQAPGKEREGVAYIYTGDSSTYYADSVKGRFTIAQDNAKNAVYLQMNSLKPEDTAMYYCAADGFLLNHRSYQYWGQGTQVTVSS
notes: Camel sdAb
B2: AS58930 sdAb (VHH)
VHH: AVQLVESGGGLVQAGGSLRLSCTASGSILRTYEMGWYRQAPGSQRELVASITSDGDTNYVDSVKGRFTISRDNGKNMVYLQMNSLKPDDTAVYYCNAVILSPSYSMRTSHWGQGTQVTVSS
notes: Camel sdAb; also called AS58930C
B3: AS49902 sdAb (VHH)
VHH: EVQLVESGGGLVQAGGSLRLSCTASGFTFDDYVMGWFRQAPGKEREGVSCISWSGDTTYYADSVKGRFTVSRDNAKNTLYLQMNSLKPEDTAMYYCAADQSLCSLAPPYNYAYWGQGTQVTVSS
notes: Camel sdAb
B4: AS66873 sdAb (VHH)
VHH: QVQLVESGGGLVQPGGSLRLSCAASGSIFSITAMGWYRQAPGKQRELVATVTSGGSTKYVESVKGRFTISNDNAKNTVYLQMNSLKPEDTAVYYCWADIVARWNSDYNVYDDYWGQGTQVTVSS
notes: Camel sdAb
B5: AS49873 sdAb (VHH)
VHH: EVQLVESGGGSVQAGGSLRLSCVASGYTYGINCMGWFRQAPGKEREGIAAISTGGGTTGVADSVKGRFTISQDNAKNTVYLQMNSLKPEDTAMYYCAARSTYSGYACVYSEVNGYNYRGQGTQVTVSS
notes: Camel sdAb
B6: AS60399 sdAb (VHH)
VHH: QVKLEESGGGLVQEGGSLRLSCAASGTIYTDSTIYWYRQAPGKQRELVASITRGGDTKYVDSVKGRFAISSDNAKNTVYLQMNSLKPEDTAVYYCNLYYRTGPSSYYRNDWGQGTQVTVSS
notes: Camel sdAb
B7: AS67190 sdAb (VHH)
VHH: QVQLVESGGGLVQAGGSLRLSCAASGNVFRFNIMGWYRQAPGNQRELVASIDDGGDRSYADSVEGRFTISRENGKKIMYLQMNSLKPEDTAVYYCAAGLGTYLNGRVSMATNYWGQGTQVTVSS
notes: Camel sdAb
B8: AS49175 sdAb (VHH)
VHH: EVQLAESGGGLVQAGGSLRLSCTASGFTFDDYVMGWFRQAPGKEREGVSCISWSGDTTYYADSVKGRFTASRDNAKNTLYLQMNSLKPEDTAMYYCAADQGKCSLASAEPDDMDYWGRGTLVTVSS
notes: Camel sdAb
B9: AS50073 sdAb (VHH)
VHH: B8 VHH with E1Q, A5V, D31N, S52G, D56G, T57S, A70I, A106G, E109G, P110A
notes: Camel sdAb
B10: AS49814 sdAb (VHH)
VHH: QIQLVESGGGSVQAGGSLRLSCVASGYIGGHYYMGWFRQAPGKEREGVAAIDIDSDGRTRYAGSVQGRFTISQDNAKNTLHLQMSSLKPEDTGMYYCAVGVGWVPARLTPQAVSYWGKGTLVTVSS
notes: Camel sdAb
B11: AS50502 sdAb (VHH)
VHH: EVQLVESGGGSVQAGGSLRLSCAAPGYTYCTYDMMWYRQALGKEREFVSAVYTDGSTLYADSVKGRFTISQDNAKNTLYLQMNSLKPEDTAMYYCKTETAVTYDKPCDFWGQGTQVTVSS
notes: Camel sdAb
B12: AS59101 sdAb (VHH)
VHH: AVQLVESGGGLVQPGGSLRLSCAVSGIYYSINLMGWYRQAPGKPRELAASITDSGITNYADSVKGRFTISRDNAKNTVHLQMNNLKPEDTAVYYCKPMGVNWGQGIQVTVSS
notes: Camel sdAb
B13: AS67147 sdAb (VHH)
VHH: EVQLVESGGGLVQAGGSLRLSCAASGDTFSFAAMGWYRQAPGKQRELVASISFSGGESTVYANSVRGRFTISGDNAKNRVSLEMNNLKPEDTAVYYCTAKRGPYLPGPEYWGQGTQVTVSS
notes: Camel sdAb
B14: AS49264 sdAb (VHH)
VHH: EVQLVESGGGSVQAGGSLRLSCAASGYTYSINCMGWFRQAPGKEREGVAVISTGGGRTDYRDSVKGRFTISQDNAKNTVYLQMNSLKPEDTAMYYCAGKTTYPGYGCGLGRSAYNYWGQGTQVTVSS
notes: Camel sdAb
B15: AS49889 sdAb (VHH)
VHH: EVQLVESGGGSVQAGGSLRLSCVASGYTWCRYDMSWYRQAPGKEREFVSGFDNDGTTSYADSVKGRFTISQDNDKNTVYLQMNSLKPEDTAMYYCKEDRSRGSLDGRVCPLSYDNWGQGTQVTVSS
notes: Camel sdAb

T1 sequence (P20138 18-259 limits assumed): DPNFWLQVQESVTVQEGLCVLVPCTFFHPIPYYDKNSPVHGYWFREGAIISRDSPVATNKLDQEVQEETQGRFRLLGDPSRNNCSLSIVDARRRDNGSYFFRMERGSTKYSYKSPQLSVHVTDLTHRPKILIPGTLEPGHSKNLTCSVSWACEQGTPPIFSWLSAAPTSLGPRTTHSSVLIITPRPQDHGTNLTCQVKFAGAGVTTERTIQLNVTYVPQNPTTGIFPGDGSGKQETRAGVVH

The assay concerns the target T1, Recombinant human CD33 protein (human, UniProt P20138 18-259).
T1 construct: Obtained commercially; also called huCD33
Put plainly: SPR (BIACORE T200), crude sdAb captured via affinity tag, 100 nM human CD33 as analyte. As for the experimental part: The sdAb proteins in the supernatant were analyzed for their ability to bind to CD33 ECD proteins by ELISA and CD33-overexpressing MV4-11 cell lines by FACS. All binders were sequenced and some were subjected to for further characterization including affinity ranking by surface plasmon resonance (SPR) on a BIACORE® T200 instrument. The experiments were carried out as follows: the crude sdAb proteins were captured through an affinity tag onto the sensorchip. High-concentration (100 nM) of human CD33 flowed over the sensorchip surface, and was allowed to bind the antibody fragments. On-rate (kₒₙ) and off-rate (koff) were roughly calculated based on the association and dissociation of one antigen concentration, and were used to estimate the equilibrium dissociation constant (KD).
In general terms: In SPR one partner is held on a chip, and binding of the other changes the refractive index at the surface.
On to B1, for which the binding result is reported as “binds”. Under B2 stands “binds”. Under B3 stands “binds”; under B4, “binds”; under B5, “binds”. As to B6, the binding result is “binds”. To B7 belongs “binds”; to B8, “binds”. For the molecule B9, the binding result is on record as “binds”. With B10, the binding result was “binds”. To B11 belongs “binds”; to B12, “binds”. Under B13 stands “binds”; under B14, “binds”; under B15, “binds”.
